{"source": "paper PMC7263589", "about": "“Integration of phage and yeast display platforms: A reliable and cost effective approach for binning of peptides as displayed on-phage” (PLoS ONE, 2020)", "key": {"[1]": {"biological_target": "T1, IL-23-AVI (human, UniProt Q9NPF7 20-189; P29460 23-328)", "T1 construct": "IL-23 p19 subunit, human; IL-12/IL-23 p40 subunit, human; Captured on streptavidin chips and beads, so biotinylation of the Avi tag is implied; also called Avi-tagged IL-23; recombinant IL-23", "T1 sequence (looked up) 1": "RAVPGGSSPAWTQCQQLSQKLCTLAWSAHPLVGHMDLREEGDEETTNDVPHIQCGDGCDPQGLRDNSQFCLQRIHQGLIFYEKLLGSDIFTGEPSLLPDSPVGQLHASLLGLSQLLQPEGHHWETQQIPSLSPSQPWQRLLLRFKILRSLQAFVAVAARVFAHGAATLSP", "T1 sequence (looked up) 2": "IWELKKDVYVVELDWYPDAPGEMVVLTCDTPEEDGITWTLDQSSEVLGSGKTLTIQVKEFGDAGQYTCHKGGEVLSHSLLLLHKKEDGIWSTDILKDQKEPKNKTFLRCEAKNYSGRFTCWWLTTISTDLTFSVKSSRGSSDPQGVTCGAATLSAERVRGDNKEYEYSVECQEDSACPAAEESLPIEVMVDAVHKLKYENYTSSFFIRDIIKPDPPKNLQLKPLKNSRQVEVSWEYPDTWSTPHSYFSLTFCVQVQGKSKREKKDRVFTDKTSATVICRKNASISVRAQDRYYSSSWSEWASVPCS", "experiment": "SPR; Biacore T200, 25°C, 50 μl/min; 2000–9000 RU of IL-23-AVI captured to streptavidin chip, peptides as analyte (3-fold series, up to 30 μM); 10 mM HEPES pH 7.5, 150 mM NaCl, 0.005% P20, 3% DMSO; multi-cycle, single cycle kinetics for 23–652; 1:1 model; n = 1", "settings": "both partners purified"}, "[2]": {"biological_target": "T2, IL-23-HIS (human, UniProt Q9NPF7 20-189; P29460 23-328)", "T2 construct": "IL-23 p19 subunit, human; IL-12/IL-23 p40 subunit, human; also called IL-23 only; IL-23 protein", "T2 sequence (looked up) 1": "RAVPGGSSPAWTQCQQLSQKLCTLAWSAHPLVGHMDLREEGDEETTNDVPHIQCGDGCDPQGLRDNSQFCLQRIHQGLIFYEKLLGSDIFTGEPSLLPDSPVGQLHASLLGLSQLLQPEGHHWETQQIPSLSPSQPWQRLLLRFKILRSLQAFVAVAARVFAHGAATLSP", "T2 sequence (looked up) 2": "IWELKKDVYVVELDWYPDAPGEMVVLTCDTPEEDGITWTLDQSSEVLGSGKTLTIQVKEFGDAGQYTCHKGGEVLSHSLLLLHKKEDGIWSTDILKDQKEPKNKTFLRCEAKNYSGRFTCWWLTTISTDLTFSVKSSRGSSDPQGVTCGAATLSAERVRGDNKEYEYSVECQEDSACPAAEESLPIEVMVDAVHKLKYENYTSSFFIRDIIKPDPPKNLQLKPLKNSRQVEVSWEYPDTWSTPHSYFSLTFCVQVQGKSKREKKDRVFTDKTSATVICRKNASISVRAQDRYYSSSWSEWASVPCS", "experiment": "SPR; competition SPR, 25°C; IL-23R-Fc-AVI (<1000 RU) captured on Protein-A; 20 nM IL-23 mixed with one concentration of peptide or cold IL-23R injected 30 s; 10 mM HEPES pH 7.5, 150 mM NaCl, 0.005% P20, 1% BSA; n = 1", "settings": "both partners purified"}, "[3]": {"biological_target": "T1, IL-23-AVI", "experiment": "AlphaScreen or HTRF; TR-FRET; compounds pre-incubated with IL-23R-FLAG 1 h, then IL-23-AVI; Europium-streptavidin and anti-FLAG-allophycocyanin; 25 mM HEPES, 150 mM NaCl, 0.02% Tween 20, 0.1% BSA, pH 7.4, 1% DMSO; n = 1", "settings": "both partners purified"}, "[4]": {"biological_target": "T1, IL-23-AVI", "experiment": "AlphaScreen or HTRF; AlphaLISA; IL-23-AVI (1.5 nM) pre-incubated with peptide 30 min, then FLAG-tagged IL-23R (3 nM); streptavidin donor and anti-FLAG acceptor beads; 25 mM HEPES pH 7.4, 150 mM NaCl, 0.02% Tween 20, 0.1% BSA; room temperature; n = 1", "settings": "both partners purified"}, "[5]": {"biological_target": "T3, Fluorescently labeled IL-23R, Q5VWK5", "T3 chain": "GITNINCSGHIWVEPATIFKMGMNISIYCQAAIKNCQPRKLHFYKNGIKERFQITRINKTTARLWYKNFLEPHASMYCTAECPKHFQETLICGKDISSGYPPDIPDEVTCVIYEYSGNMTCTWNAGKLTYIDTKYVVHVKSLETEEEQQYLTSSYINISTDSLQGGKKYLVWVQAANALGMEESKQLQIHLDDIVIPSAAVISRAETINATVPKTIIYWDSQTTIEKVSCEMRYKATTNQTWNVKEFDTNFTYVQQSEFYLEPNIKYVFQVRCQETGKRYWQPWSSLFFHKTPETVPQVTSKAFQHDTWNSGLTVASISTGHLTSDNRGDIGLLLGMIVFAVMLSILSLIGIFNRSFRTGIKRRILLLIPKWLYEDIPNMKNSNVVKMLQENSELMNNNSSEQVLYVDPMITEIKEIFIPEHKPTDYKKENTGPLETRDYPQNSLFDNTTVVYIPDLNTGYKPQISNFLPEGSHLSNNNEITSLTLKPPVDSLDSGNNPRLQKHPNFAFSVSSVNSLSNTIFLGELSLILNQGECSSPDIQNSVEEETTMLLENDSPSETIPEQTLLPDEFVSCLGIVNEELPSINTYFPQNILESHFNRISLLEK", "experiment": "flow cytometry on yeast-displayed IL-23", "settings": "chain shown with the change; n = 1; parent: est. 1.05; read off a plot"}, "[6]": {"biological_target": "T1, IL-23-AVI", "experiment": "SPR; Biacore T200, 25°C; 200–1000 RU of IL-23-AVI captured to streptavidin chip, IL-23R-FLAG-HIS as analyte, single cycle kinetics; 1:1 model", "settings": "both partners purified"}}, "note": "Ends that are not written are not given here.", "data": [{"binder": "QKITQCVYIIWTYPCLLNDV (selected from a peptide phage library against IL-23; Two cysteines; source: synthetic peptide (CPC Scientific))", "note": "[peptide 23–441 (free, chemically synthesized)]", "values": [{"measurement": "Kd", "setting": "[1]", "result": 0.911, "unit": "µM"}, {"measurement": "koff", "setting": "[1]", "result": 0.174, "unit": "s⁻¹"}, {"measurement": "kon", "setting": "[1]", "result": 190000, "unit": "M⁻¹ s⁻¹"}, {"measurement": "% inhibition of IL-23 binding to immobilised IL-23R (peptide at 30 μM)", "setting": "[2]", "result": 100, "unit": "%"}, {"measurement": "IC50", "setting": "[3]", "result": 5.7, "unit": "µM"}, {"measurement": "IC50", "setting": "[4]", "result": 2500, "unit": "nM"}]}, {"binder": "LECLYYLRWKVCDN (not fully specified (bridges); cysteine pairing not given here, selected from a peptide phage library against IL-23; Two cysteines; source: synthetic peptide (CPC Scientific))", "note": "[peptide 23–447 (free, chemically synthesized)]", "values": [{"measurement": "Kd", "setting": "[1]", "result": "~27.5", "unit": "µM"}, {"measurement": "koff", "setting": "[1]", "result": "~1.33", "unit": "s⁻¹"}, {"measurement": "kon", "setting": "[1]", "result": "~48300", "unit": "M⁻¹ s⁻¹"}, {"measurement": "% inhibition of IL-23 binding to immobilised IL-23R (peptide at 30 μM)", "setting": "[2]", "result": 78.7, "unit": "%"}, {"measurement": "IC50", "setting": "[3]", "result": 24, "unit": "µM"}, {"measurement": "IC50", "setting": "[4]", "result": 6700, "unit": "nM"}]}, {"binder": "wild-type IL-23 displayed on yeast, Q9NPF7;P29460 W137A (protein) chain 1: RAVPGGSSPAWTQCQQLSQKLCTLAWSAHPLVGHMDLREEGDEETTNDVPHIQCGDGCDPQGLRDNSQFCLQRIHQGLIFYEKLLGSDIFTGEPSLLPDSPVGQLHASLLGLSQLLQPEGHHWETQQIPSLSPSQPAQRLLLRFKILRSLQAFVAVAARVFAHGAATLSP chain 2: IWELKKDVYVVELDWYPDAPGEMVVLTCDTPEEDGITWTLDQSSEVLGSGKTLTIQVKEFGDAGQYTCHKGGEVLSHSLLLLHKKEDGIWSTDILKDQKEPKNKTFLRCEAKNYSGRFTCWWLTTISTDLTFSVKSSRGSSDPQGVTCGAATLSAERVRGDNKEYEYSVECQEDSACPAAEESLPIEVMVDAVHKLKYENYTSSFFIRDIIKPDPPKNLQLKPLKNSRQVEVSWEYPDTWSTPHSYFSLTFCVQVQGKSKREKKDRVFTDKTSATVICRKNASISVRAQDRYYSSSWSEWASVPCS", "values": [{"measurement": "ratio to parent", "setting": "[5]", "result": 0.1}]}, {"binder": "wild-type IL-23 displayed on yeast, Q9NPF7;P29460 L141A (protein) chain 1: RAVPGGSSPAWTQCQQLSQKLCTLAWSAHPLVGHMDLREEGDEETTNDVPHIQCGDGCDPQGLRDNSQFCLQRIHQGLIFYEKLLGSDIFTGEPSLLPDSPVGQLHASLLGLSQLLQPEGHHWETQQIPSLSPSQPWQRLALRFKILRSLQAFVAVAARVFAHGAATLSP chain 2: IWELKKDVYVVELDWYPDAPGEMVVLTCDTPEEDGITWTLDQSSEVLGSGKTLTIQVKEFGDAGQYTCHKGGEVLSHSLLLLHKKEDGIWSTDILKDQKEPKNKTFLRCEAKNYSGRFTCWWLTTISTDLTFSVKSSRGSSDPQGVTCGAATLSAERVRGDNKEYEYSVECQEDSACPAAEESLPIEVMVDAVHKLKYENYTSSFFIRDIIKPDPPKNLQLKPLKNSRQVEVSWEYPDTWSTPHSYFSLTFCVQVQGKSKREKKDRVFTDKTSATVICRKNASISVRAQDRYYSSSWSEWASVPCS", "values": [{"measurement": "ratio to parent", "setting": "[5]", "result": 0.1}]}, {"binder": "IL-23R-FLAG-HIS (receptor, Soluble monomeric ectodomain, FLAG and His tags left out. Limits are not printed in the main text (constructs are in S1 Table of the supplement), so the mature extracellular domain from UniProt …) GITNINCSGHIWVEPATIFKMGMNISIYCQAAIKNCQPRKLHFYKNGIKERFQITRINKTTARLWYKNFLEPHASMYCTAECPKHFQETLICGKDISSGYPPDIPDEVTCVIYEYSGNMTCTWNAGKLTYIDTKYVVHVKSLETEEEQQYLTSSYINISTDSLQGGKKYLVWVQAANALGMEESKQLQIHLDDIVIPSAAVISRAETINATVPKTIIYWDSQTTIEKVSCEMRYKATTNQTWNVKEFDTNFTYVQQSEFYLEPNIKYVFQVRCQETGKRYWQPWSSLFFHKTPETVPQVTSKAFQHDTWNSGLTVASISTGHLTSDNRGDIG", "values": [{"measurement": "Kd", "setting": "[6]", "result": 8.92, "unit": "nM"}, {"measurement": "koff", "setting": "[6]", "result": 0.00151, "unit": "s⁻¹"}, {"measurement": "kon", "setting": "[6]", "result": 170000, "unit": "M⁻¹ s⁻¹"}]}, {"binder": "FTKEIDSWWLSLMSS (selected from a peptide phage library against IL-23; No cysteines, 15 residues; source: synthetic peptide (CPC Scientific))", "note": "[peptide 23–437 (free, chemically synthesized)]", "values": [{"measurement": "Kd", "setting": "[1]", "result": 10.5, "unit": "µM"}, {"measurement": "koff", "setting": "[1]", "result": 1.86, "unit": "s⁻¹"}, {"measurement": "kon", "setting": "[1]", "result": 178000, "unit": "M⁻¹ s⁻¹"}, {"measurement": "% inhibition of IL-23 binding to immobilised IL-23R (peptide at 30 μM)", "setting": "[2]", "result": 57.6, "unit": "%"}, {"measurement": "IC50", "setting": "[3]", "result": 7, "unit": "µM"}, {"measurement": "IC50", "setting": "[4]", "result": 1400, "unit": "nM"}]}]}
